What was measured:
[1] = molecular target: T1, NaPi2b expressed on TOV-21G cells (Homo sapiens, UniProt O95436); test: Cellular binding to TOV-21G cells by flow cytometry (Example 19); details: NB = no binding (apparent Kd >150 nM)
T1 construct: IGROV-1 and TOV-21G cells express endogenous NaPi2b at high and moderate levels, respectively; endogenous in cells; host or cells: TOV-21G
T1 sequence (O95436 1-690): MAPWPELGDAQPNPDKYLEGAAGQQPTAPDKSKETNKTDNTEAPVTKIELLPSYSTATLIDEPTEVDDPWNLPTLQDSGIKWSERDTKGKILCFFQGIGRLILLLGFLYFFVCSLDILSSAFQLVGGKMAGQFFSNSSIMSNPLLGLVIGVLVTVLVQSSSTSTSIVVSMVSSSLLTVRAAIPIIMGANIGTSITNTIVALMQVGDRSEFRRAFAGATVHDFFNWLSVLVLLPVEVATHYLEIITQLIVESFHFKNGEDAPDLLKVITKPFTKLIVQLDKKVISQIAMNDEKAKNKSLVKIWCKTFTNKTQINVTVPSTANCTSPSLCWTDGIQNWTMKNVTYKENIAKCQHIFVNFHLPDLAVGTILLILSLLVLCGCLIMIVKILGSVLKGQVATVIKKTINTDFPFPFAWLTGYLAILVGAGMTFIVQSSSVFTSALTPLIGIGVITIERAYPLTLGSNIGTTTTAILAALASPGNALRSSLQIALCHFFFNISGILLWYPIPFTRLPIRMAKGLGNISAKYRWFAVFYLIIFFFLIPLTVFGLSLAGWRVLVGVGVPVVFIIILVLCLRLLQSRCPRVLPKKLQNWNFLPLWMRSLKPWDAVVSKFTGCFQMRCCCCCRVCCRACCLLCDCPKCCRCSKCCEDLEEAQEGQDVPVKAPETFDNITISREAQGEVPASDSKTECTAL
Experimental: Briefly, cells were seeded at 50,000 cells/well in conical-bottom 96-well plates and treated with test antibody for 24 hours at 4° C. to prevent internalization. Palivizumab (anti-RSV antibody, v22277) was included as a negative control. […] Following incubation, cells were washed and stained with anti-Human IgG Fc AF647 conjugate (Jackson Immuno Research Labs, West Grove, PA; Cat. No. 109-605-098) at 4° C. for 30 min. Following incubation and washing, fluorescence was detected by flow cytometry on a BD LSRFortessa™ Cell Analyzer (BD Biosciences, Franklin Lake, NJ) with 1,000 minimum events collected per well. The AF647/APC-A GeoMean (fluorescence signal geometric mean, proportional to anti-Human AF647 binding) was calculated for the live cell population using FlowJo™ Version 10.8.1 (BD Biosciences, Franklin Lake, NJ) and plotted for each test antibody using GraphPad Prism Version 9 (GraphPad Software, San Diego, CA).
The ability of the humanized antibody variants v38591 and v29456 to bind to NaPi2b expressed on cells was assessed on endogenous NaPi2b-expressing tumor cell lines IGROV-1 (ovarian adenocarcinoma) and TOV-21G (ovarian carcinoma) by flow cytometry. IGROV-1 and TOV-21G cells express endogenous NaPi2b at high and moderate levels, respectively, as described in Example 10.
Cellular binding was performed according to methods described in Example 13.

NCI-H441 cells = test: Internalization by flow cytometry in NCI-H441 cells; format: cell-based, human; details: antibody 10 nM
Experimental: Briefly, antibodies were fluorescently labeled by coupling to a Fab fragment AF488 conjugate targeting anti-Human IgG Fe (Jackson Immuno Research Labs, West Grove, PA; Cat. No. 109-547-008) at a 1:1 molar ratio in PBS pH 7.4 (Thermo Fisher Scientific, Waltham, MA; Cat. No. 10010-023), for 24 hours at 4° C. Cells were seeded at 50,000 cells/well in RPMI 1640, ATCC modification (Thermo Fisher Scientific, Waltham, MA) supplemented with 10% fetal bovine serum (Thermo Fisher Scientific, Waltham, MA) in 48-well plates and incubated overnight under standard culturing conditions (37° C./5% CO2) to allow attachment. […] Following incubation, cells were dissociated, washed, and surface AF488 fluorescence was quenched using an anti-AF488 antibody (Life Technologies, Carlsbad, CA; Cat. No. A-11094) at 100 nM for 30 minutes at 4° C. […] (internalized fluorescence) was detected by flow cytometry on a BD LSRFortessa™ Cell Analyzer (BD Biosciences, Franklin Lake, NJ) with 1,000 minimum events collected per well. The AF488/FITC-A GeoMean (fluorescence signal geometric mean, proportional to anti-Human Fab AF488 labelling) was calculated for the live single cell population using FlowJo™ Version 10.8.1 (BD Biosciences, Franklin Lake, NJ) and plotted using GraphPad Prism Version 9 (GraphPad Software, San Diego, CA).

Bmax [1]: 11,271 | Curve Hill Slope (h) [1]: 1.1 | Kd [1]: 0.6 nM
B1: v29456: humanized anti-NaPi2b IgG1/kappa antibody H1L2; VH SEQ ID NO:24, VL SEQ ID NO:29 (antibody, V domains shown)
VH: QVQLVQSGAEVKKPGASVKVSCKASGFTFTSYNVHWVRQAPGQGLEWMGAISPGNGDLSYAQKFQGRVTMTRDTSTSTVYMELSSLRSEDTAVYYCARGRTGMGAVDYWGQGTLVTVSS
VL: DVQMTQSPSSLSASVGDRVTITCRASQDVYSYLNWYQQKPGKAVKLLIYYTSRLQSGVPSRFSGSGSGTDYTLTISSLQPEDFATYYCQQYNIFPWTFGQGTKLEIK
modifications: v29452, v29456, v29460 VH (H1); v29453, v29454, v29455, v29456 VL (L2)
Internalized Fluorescence Fold-Over Palivizumab (NCI-H441 cells; NCI-H441, 5 hrs): 2.4 fold | Internalized Fluorescence Fold-Over Palivizumab (NCI-H441 cells; NCI-H441, 24 hrs): 4.0 fold
